Measured values published in patent publication US20020182595, “Method of identifying cellular regulators of adeno-associated virus (AAV)” (published 2002).
Numbering of substitutions follows the chain as printed.

Experiments:
ZF5 zinc finger 4 mutant = molecular target: T1, ZF5 zinc finger 4 mutant (Homo sapiens, UniProt O43829 O43829:1-449, C363S); assay: EMSA; no shift detected; conditions: tags: untagged and N-terminal 6xMyc versions; label: 32P
T1 sequence: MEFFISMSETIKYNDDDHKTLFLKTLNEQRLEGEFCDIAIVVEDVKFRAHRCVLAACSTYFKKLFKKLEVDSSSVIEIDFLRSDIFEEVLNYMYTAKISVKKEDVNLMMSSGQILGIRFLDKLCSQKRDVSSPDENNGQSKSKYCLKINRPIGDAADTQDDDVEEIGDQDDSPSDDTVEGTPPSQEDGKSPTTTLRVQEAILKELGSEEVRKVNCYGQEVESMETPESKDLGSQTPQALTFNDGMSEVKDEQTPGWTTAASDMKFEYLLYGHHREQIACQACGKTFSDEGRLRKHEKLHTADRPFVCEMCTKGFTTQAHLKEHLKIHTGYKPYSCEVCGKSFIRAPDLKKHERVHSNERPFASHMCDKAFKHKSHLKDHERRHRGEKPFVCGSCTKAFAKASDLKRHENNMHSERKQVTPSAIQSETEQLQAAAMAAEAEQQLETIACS

[1] = molecular target: T2, ZF5C (clone A25, C-terminal ZF5 fragment) (Homo sapiens, UniProt O43829 O43829:308-449); assay: EMSA; blocked by wild-type RRS competitor; conditions: tags: N-terminal 6xMyc; label: 32P
T2 sequence: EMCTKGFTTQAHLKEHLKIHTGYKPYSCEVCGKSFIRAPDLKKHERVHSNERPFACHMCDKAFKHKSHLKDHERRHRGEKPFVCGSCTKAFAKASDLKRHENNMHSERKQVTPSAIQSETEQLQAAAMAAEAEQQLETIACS

Rep78 = molecular target: T3, Rep78 (UniProt Q89268 Q89268:1-621); assay: EMSA; blocked by wild-type RRS competitor; conditions: label: 32P
T3 sequence: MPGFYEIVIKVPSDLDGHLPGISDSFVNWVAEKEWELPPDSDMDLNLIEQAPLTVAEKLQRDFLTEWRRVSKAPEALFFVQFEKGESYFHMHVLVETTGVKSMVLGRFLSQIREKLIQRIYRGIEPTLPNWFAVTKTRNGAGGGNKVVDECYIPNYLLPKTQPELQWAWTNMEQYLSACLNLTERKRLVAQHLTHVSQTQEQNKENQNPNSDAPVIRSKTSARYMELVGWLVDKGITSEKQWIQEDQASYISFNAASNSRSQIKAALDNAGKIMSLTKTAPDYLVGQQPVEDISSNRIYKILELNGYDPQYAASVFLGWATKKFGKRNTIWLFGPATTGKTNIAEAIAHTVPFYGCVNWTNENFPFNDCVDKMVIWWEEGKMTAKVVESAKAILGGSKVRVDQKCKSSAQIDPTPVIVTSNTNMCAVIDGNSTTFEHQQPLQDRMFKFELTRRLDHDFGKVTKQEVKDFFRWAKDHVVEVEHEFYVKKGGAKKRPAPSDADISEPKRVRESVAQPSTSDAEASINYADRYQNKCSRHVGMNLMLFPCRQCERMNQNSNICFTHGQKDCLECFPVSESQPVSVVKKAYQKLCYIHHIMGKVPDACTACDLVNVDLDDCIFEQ

ZF5 = molecular target: T4, ZF5 (Homo sapiens, UniProt O43829 O43829:1-449); assay: EMSA; competed by excess unlabeled wild-type RRS; conditions: tags: untagged and N-terminal 6xMyc versions; label: 32P
T4 sequence: T1 sequence with S363C

B1: RRS probe (core of 32-bp oligonucleotide) (dsDNA)
DNA 1: CTGCGCGCTCGCTCGCTCAC
DNA 2: GTGAGCGAGCGAGCGCGCAG
- binding result (ZF5 zinc finger 4 mutant): no binding
- binding result [1]: binds
- binding result (Rep78): binds
- binding result (ZF5): binds
